In patent US20130031647A1 (PIERRE FABRE MEDICAMENT, published 2013):

T1: CXCR2:YFP fusion protein (UniProt P25025 1-360)
T1 construct: whole, on cells
T1 sequence (looked up): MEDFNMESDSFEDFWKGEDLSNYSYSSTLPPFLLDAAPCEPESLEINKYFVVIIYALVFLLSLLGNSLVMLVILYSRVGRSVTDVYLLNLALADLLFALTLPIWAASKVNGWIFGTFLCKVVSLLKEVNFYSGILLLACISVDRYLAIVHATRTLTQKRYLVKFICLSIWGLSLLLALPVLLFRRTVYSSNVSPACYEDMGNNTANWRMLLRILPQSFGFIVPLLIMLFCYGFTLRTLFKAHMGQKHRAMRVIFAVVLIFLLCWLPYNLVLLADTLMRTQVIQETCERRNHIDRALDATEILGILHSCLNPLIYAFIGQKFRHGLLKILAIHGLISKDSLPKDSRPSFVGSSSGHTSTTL

B1: CXCR4/Rluc fusion protein (receptor, UniProt P61073 1-352, looked up)
chain: MEGISIYTSDNYTEEMGSGDYDSMKEPCFREENANFNKIFLPTIYSIIFLTGIVGNGLVILVMGYQKKLRSMTDKYRLHLSVADLLFVITLPFWAVDAVANWYFGNFLCKAVHVIYTVNLYSSVLILAFISLDRYLAIVHATNSQRPRKLLAEKVVYVGVWIPALLLTIPDFIFANVSEADDRYICDRFYPNDLWVVVFQFQHIMVGLILPGIVILSCYCIIISKLSHSKGHQKRKALKTTVILILAFFACWLPYYIGISIDSFILLEIIKQGCEFENTVHKWISITEALAFFHCCLNPILYAFLGAKFKTSAQHALTSVSRGSSLKILSKGKRGGHSSVSTESESSSFHSS
notes: whole, on cells; Transiently expressed in HEK293 cells for BRET; also called CXCR4 tagged with luciferase; not shown: Renilla reniformis luciferase (Rluc)
B2: murine monoclonal antibody 515H7 (antibody, V domains shown)
VH: EVNLVESGGGLVQPGGSLRLSCATSGFTFTDNYMSWVRQPPGKALEWLGFIRNKANGYTTDYSASVRGRFTISRDNSQSILYLQMNALRAEDSATYYCARDVGSNYFDYWGQGTTLTVSS
VL: DIVMSQSPSSLAVSAGEKVTMSCKSSQSLFNSRTRKNYLAWYQQKPGQSPKLLIYWASARDSGVPARFTGSGSETYFTLTISRVQAEDLAVYYCMQSFNLRTFGQGTKVEIK
B3: anti-CXCR4 chimeric Mab c515H7 (antibody, human IgG1, kappa, V domains shown)
VH: EVNLVESGGGLVQPGGSLRLSCATSGFTFTDNYMSWVRQPPGKALEWLGFIRNKANGYTTDYSASVRGRFTISRDNSQSILYLQMNALRAEDSATYYCARDVGSNYFDYWGQGTTLTVSS
VL: DIVMSQSPSSLAVSAGEKVTMSCKSSQSLFNSRTRKNYLAWYQQKPGQSPKLLIYWASARDSGVPARFTGSGSETYFTLTISRVQAEDLAVYYCMQSFNLRTFGQGTKVEIKR
notes: also called chimeric 515H7; chimeric antibody
B4: humanized antibody Hz515H7 VH1 D76N VL2.2 (antibody, human IgG1, kappa, V domains shown)
VH: EVQLVESGGGLVQPGRSLRLSCTASGFTFTDNYMSWVRQAPGKGLEWVGFIRNKANGYTTEYAASVKGRFTISRDNSKSIAYLQMNSLKTEDTAVYYCARDVGSNYFDYWGQGTLVTVSS
VL: DIVMTQSPDSLAVSLGERATMSCKSSQSLFNSRTRKNYLAWYQQKPGQPPKLLIYWASARDSGVPDRFTGSGSETYFTLTISRVQAEDVAVYYCMQSFNLRTFGQGTKVEIKR
notes: human IgG1/kappa format; also called hz515H7VL2.2
B5: humanized antibody Hz515H7 VH1/c515H7 VL (antibody, human IgG1, V domains shown)
VH: EVQLVESGGGLVQPGRSLRLSCTASGFTFTDNYMSWVRQAPGKGLEWVGFIRNKANGYTTEYAASVKGRFTISRDDSKSIAYLQMNSLKTEDTAVYYCARDVGSNYFDYWGQGTLVTVSS
VL: DIVMSQSPSSLAVSAGEKVTMSCKSSQSLFNSRTRKNYLAWYQQKPGQSPKLLIYWASARDSGVPARFTGSGSETYFTLTISRVQAEDLAVYYCMQSFNLRTFGQGTKVEIKR
notes: also called VH1 combined with the chimeric VL (cVL); VH1 combined with the murine VL
B6: humanized antibody Hz515H7 VH1 D76N VL2.1 (antibody, human IgG1, kappa, V domains shown)
VH: EVQLVESGGGLVQPGRSLRLSCTASGFTFTDNYMSWVRQAPGKGLEWVGFIRNKANGYTTEYAASVKGRFTISRDNSKSIAYLQMNSLKTEDTAVYYCARDVGSNYFDYWGQGTLVTVSS
VL: DIVMTQSPDSLAVSLGERATMSCKSSQSLFNSRTRKNYLAWYQQKPGQPPKLLIYWASARDSGVPDRFSGSGSETYFTLTISRVQAEDLAVYYCMQSFNLRTFGQGTKVEIKR
notes: human IgG1/kappa format; also called hz515H7VL2.1
B7: humanized antibody Hz515H7 VH1 VL1 (antibody, human IgG1, kappa, V domains shown)
VH: EVQLVESGGGLVQPGRSLRLSCTASGFTFTDNYMSWVRQAPGKGLEWVGFIRNKANGYTTEYAASVKGRFTISRDDSKSIAYLQMNSLKTEDTAVYYCARDVGSNYFDYWGQGTLVTVSS
VL: DIVMTQSPDSLAVSLGERATINCKSSQSLFNSRTRKNYLAWYQQKPGQPPKLLIYWASTRESGVPDRFSGSGSGTDFTLTISSLQAEDVAVYYCMQSFNLRTFGQGTKVEIKR
notes: human IgG1/kappa format; also called humanized variant 515H7 VH variant 1 VL variant 1
B8: humanized antibody Hz515H7 VH1 D76N VL2 (antibody, human IgG1, kappa, V domains shown)
VH: EVQLVESGGGLVQPGRSLRLSCTASGFTFTDNYMSWVRQAPGKGLEWVGFIRNKANGYTTEYAASVKGRFTISRDNSKSIAYLQMNSLKTEDTAVYYCARDVGSNYFDYWGQGTLVTVSS
VL: DIVMTQSPSSLAVSLGERATMSCKSSQSLFNSRTRKNYLAWYQQKPGQSPKLLIYWASARDSGVPARFTGSGSETYFTLTISRVQAEDLAVYYCMQSFNLRTFGQGTKVEIKR
notes: human IgG1/kappa format; Biotinylated in the IHC study; also called hz515H7VL2; hz515H7 VH D76N VL2
B9: hz515H7 VH1 VL2 (antibody, human IgG1, kappa, V domains shown)
VH: EVQLVESGGGLVQPGRSLRLSCTASGFTFTDNYMSWVRQAPGKGLEWVGFIRNKANGYTTEYAASVKGRFTISRDDSKSIAYLQMNSLKTEDTAVYYCARDVGSNYFDYWGQGTLVTVSS
VL: DIVMTQSPSSLAVSLGERATMSCKSSQSLFNSRTRKNYLAWYQQKPGQSPKLLIYWASARDSGVPARFTGSGSETYFTLTISRVQAEDLAVYYCMQSFNLRTFGQGTKVEIKR
notes: also called VH1 combined with variant 2 of VL
B10: humanized antibody Hz515H7 VH1 D76N VL2.3 (antibody, human IgG1, kappa, V domains shown)
VH: EVQLVESGGGLVQPGRSLRLSCTASGFTFTDNYMSWVRQAPGKGLEWVGFIRNKANGYTTEYAASVKGRFTISRDNSKSIAYLQMNSLKTEDTAVYYCARDVGSNYFDYWGQGTLVTVSS
VL: DIVMTQSPDSLAVSLGERATMSCKSSQSLFNSRTRKNYLAWYQQKPGQPPKLLIYWASARDSGVPDRFTGSGSETYFTLTISSLQAEDLAVYYCMQSFNLRTFGQGTKVEIKR
notes: human IgG1/kappa format; also called hz515H7VL2.3

Experiments:
[1] = target: constitutively active mutant (CAM) Asn^119Ser CXCR4 receptor (human) (UniProt P61073); assay: cell-based or functional assay
CXCR2:YFP fusion protein = target: T1, CXCR2:YFP fusion protein; assay: BRET in transiently transfected HEK293 cells
Protocol: The day after, cells were distributed in poly-lysine pre-coated white 96 MW plates in complete culture medium [DMEM supplemented with 10% FBS]. Cells were first cultivated at 37° C. with CO₂ 5% in order to allow cell attachment to the plate. Cells were then starved with 200 μl DMEM/well overnight. Immediately prior to the BRET experiment, DMEM was removed and cells were quickly washed with PBS. […] After incubation for further 10 minutes at 37° C., light-emission acquisition at 485 nm and 530 nm was initiated using the Mithras LB940 multilabel reader (Berthold) (1 s/wavelength/well repeated 15 times at room temperature).
Calculation of BRET ratio was performed as previously described (Angers et al., 2000): [(emission_{530 nm})−(emission_{485 nm})×Cf]/(emission_{485 nm}), where Cf=(emission_{530 nm}) (emission_{485 nm}) for cells expressing the Rluc fusion protein alone under the same experimental conditions. […] For sake of readability, results are expressed in milliBRET units (mBU); mBU corresponds to the BRET ratio multiplied by 1000.

human CXCR4 receptor [2] = target: T2, human CXCR4 receptor (human, UniProt P61073 1-352); assay: cell-based or functional assay
human CXCR4 receptor [3] = target: T2, human CXCR4 receptor; assay: competition of [^125I]SDF-1 (1 nM) binding, Mab at 100 nM, SPA, CHO-K1 membranes expressing human CXCR4
Protocol: (§1) CHO-K1 cells, stably and constitutively expressing human CXCR4 receptor were obtained upon transfection of naïve CHO-K1 cells (ATCC CCL-61) with a mammalian expression vector carrying the whole coding sequence of human CXCR4 receptor (RefSeq NM_{—}003467). Cells were propagated in complete culture medium [DMEM-Ham's F12 supplemented with 5% fetal calf serum (FCS) and 500 μg/ml of geneticin]. Radioligand binding experiments were conducted on cell membranes obtained upon mechanical scrapping of CHO/CXCR4 cells in lysis buffer [Hepes 20 mM, pH 7.4, NaCl 150 mM] followed by centrifugation (10000 g, 15 min). […] Upon centrifugation [1000 g for 10 min.] radioactive counts were measured in a scintillation counter (TopCount, Perkin Elmer).

human CXCR4 receptor [4] = target: T2, human CXCR4 receptor; assay: dose-dependent inhibition of [^125I]SDF-1 binding, SPA, CHO-K1 membranes expressing human CXCR4
Protocol: as §1

human CXCR4 receptor [5] = target: T2, human CXCR4 receptor; assay: competition of [^125I]SDF-1 (1 nM) binding, SPA, CHO-K1 membranes expressing human CXCR4
Protocol: as §1

human CXCR4 receptor [6] = target: T2, human CXCR4 receptor; assay: flow cytometry competition on CXCR4 transfected NIH3T3 cells; competitor: biotinylated murine 515H7
From the text: In a first series of experiments, we constructed and analysed the anti-CXCR4 binding activities of the three first humanized variants. […] Therefore, VH1 was combined with the three different variants of VL (FIG. 23D-F).

Molecule	IC50 in [^35S]GTPγS binding, NIH3T3/CXCR4 cells (human CXCR4 receptor [2])	inhibition of SDF-1-induced β-arrestin recruitment (BRET) (human CXCR4 receptor [2])	% of inhibition of [^35S]GTPγS binding stimulated by SDF-1 (100 nM) (human CXCR4 receptor [2])	percentage of inhibition of SDF-1-induced BRET increase, CXCR4 homo-dimers (human CXCR4 receptor [2])	% inhibition of [^125I]SDF-1 (human CXCR4 receptor [5])	further results
T140 (peptide)	–	–	–	–	–	inhibition of SDF-1-stimulated [^35S]GTPγS binding [1]: -159%; inhibition of basal [^35S]GTPγS binding [1]: -17%
B1	–	–	–	–	–	binding result (CXCR2:YFP fusion protein): binds
B2	1.9 nM	~95%	–	–	–	IC50 in [^35S]GTPγS binding, Hela cells (human CXCR4 receptor [2]): 0.2 nM; decrease in SDF-1-induced U937 cells migration (human CXCR4 receptor [2]): > 80%
B3	1.5 nM	~93%	–	–	–	IC50 in [^35S]GTPγS binding, Hela cells (human CXCR4 receptor [2]): 0.6 nM; decrease in SDF-1-induced U937 cells migration (human CXCR4 receptor [2]): > 80%; % inhibition of [^125I]SDF-1 (human CXCR4 receptor [3]): 55%
B4	5.19 nM	~82%	66%	~33%	61%	IC50 (human CXCR4 receptor [4]): 5.91 nM
B5	–	–	–	–	–	binding result (human CXCR4 receptor [6]): binds
B6	4.05 nM	~81%	69%	~65%	68%	IC50 (human CXCR4 receptor [4]): 6.69 nM
B7	–	–	–	–	–	binding result (human CXCR4 receptor [6]): binds
B8	3.86 nM	~94%	86%	~88%	77%	IC50 (human CXCR4 receptor [4]): 1.44 nM; IC50, SDF-1 induced U937 cell migration (human CXCR4 receptor [2]): 4.53 ng/mL
B9	–	–	–	–	–	binding result (human CXCR4 receptor [6]): binds
B10	8.5 nM	~71%	58%	~21%	49%	–
